Test results from PMC6846478.
Positions count from the first letter of the chain named.

Tests used:
[1] = molecular target: T1, RNase H1 HBD K59A,K60A (human, UniProt O60930 1-80, K59A;K60A); assay: NanoBRET
T1 sequence: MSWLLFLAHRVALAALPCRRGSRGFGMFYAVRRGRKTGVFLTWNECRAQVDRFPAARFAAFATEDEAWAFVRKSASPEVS

[2] = molecular target: T2, RNase H1 CAT R179A (human, UniProt O60930 81-286, R179A); assay: NanoBRET
T2 sequence: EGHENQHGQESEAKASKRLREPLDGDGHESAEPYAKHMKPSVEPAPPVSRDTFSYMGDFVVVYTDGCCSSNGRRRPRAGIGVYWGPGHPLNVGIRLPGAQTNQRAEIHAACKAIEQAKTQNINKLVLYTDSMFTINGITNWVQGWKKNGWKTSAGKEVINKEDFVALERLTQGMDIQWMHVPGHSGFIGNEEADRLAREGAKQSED

[3] = molecular target: T3, RNase H1 CAT N151A (human, UniProt O60930 81-286, N151A); assay: NanoBRET
T3 sequence: T2 sequence with N71A, A99R

[4] = molecular target: T4, NLuc-P54nrb full length (human, UniProt Q15233 1-471); assay: competition
T4 sequence: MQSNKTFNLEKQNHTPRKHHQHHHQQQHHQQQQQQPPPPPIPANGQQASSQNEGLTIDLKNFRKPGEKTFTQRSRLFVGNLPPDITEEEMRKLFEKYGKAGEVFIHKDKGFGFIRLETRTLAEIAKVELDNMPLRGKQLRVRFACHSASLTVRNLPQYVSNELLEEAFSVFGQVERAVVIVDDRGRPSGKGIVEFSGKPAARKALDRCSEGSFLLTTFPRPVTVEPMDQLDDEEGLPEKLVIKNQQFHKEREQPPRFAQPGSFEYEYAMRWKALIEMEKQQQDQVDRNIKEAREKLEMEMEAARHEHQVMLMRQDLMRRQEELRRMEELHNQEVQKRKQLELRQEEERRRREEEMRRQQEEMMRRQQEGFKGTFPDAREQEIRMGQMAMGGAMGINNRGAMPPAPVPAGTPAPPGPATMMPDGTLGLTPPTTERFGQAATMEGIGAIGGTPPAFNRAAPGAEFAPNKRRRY

[5] = molecular target: T4, NLuc-P54nrb full length; assay: NanoBRET

B1: PO DNA/RNA heteroduplex (DNA:RNA)
DNA: CTGCTAGCCTCTGGATTTGA
RNA: UCAAAUCCAGAGGCUAGCAG
With B1 the binding signal [1] was ~10 fold weaker than WT HBD, the binding signal [2] was > 2 fold weaker than WT CAT and the binding signal [3] was > 7 fold weaker than WT CAT.

CUGCUAGCCUCUGGAUUUGA (ssRNA) [PO RNA]: no binding [4].

CTGCTAGCCTCTGGATTTGA (ssDNA) [PO DNA]: no binding [4].

CTGCTAGCCTCTGGATTTGA (XNA, full PS; 5-10-5 gapmer, 2'-F wings, DNA gap) [ASO 766638 (2'-F gapmer)] was tested, and the Kd [5] was ~3 nM.
